In patent CN111087470A:

Molecular target: 人CD47 (human) (UniProt Q08722)
Assay: flow cytometry on red blood cells, commercial B6H12.2 as comparison

B1: 商品化抗CD47抗体B6H12.2 (antibody, from another filing)
scFv: EVQLVESGGDLVKPGGSLKLSCAASGFTFSGYGMSWVRQTPDKRLEWVATITSGGTYTYYPDSVKGRFTISRDNAKNTLYLQIDSLKSEDTAIYFCARSLAGNAMDYWGQGTSVTVSSGGGGSGGGGSGGGGSDIVMTQSPATLSVTPGDRVSLSCRASQTISDYLHWYQQKSHESPRLLIKFASQSISGIPSRFSGSGSGSDFTLSINSVEPEDVGVYYCQNGHGFPRTFGGGTKLEIKEQKLISEEDL
For B1, the 结合率 was 99.2%.
